Values belong to the substance of their own block, whether it stands above or below them.
Key:
[1] = molecular target: PD-1 on primary human CD8+ T cells (human (endogenous in primary T cells of donors)) (UniProt Q15116)
[2] = molecular target: PD-1 on IcAR-PD-1 cells (Immune Checkpoint Artificial Reporter overexpressing PD-1) (human) (UniProt Q15116)
[3] = molecular target: PD-1 on primary human CD8+ T cells (human (endogenous in primary T cells of donors)) (UniProt Q15116); remark: listed apart in the source
[4] = molecular target: PD-1 on IcAR-PD-1 cells (Immune Checkpoint Artificial Reporter overexpressing PD-1) (human) (UniProt Q15116); remark: listed apart in the source
[5] = molecular target: PD-1 on IcAR-PD-1 cells (Immune Checkpoint Artificial Reporter overexpressing PD-1) (human) (UniProt Q15116); remark: listed apart in the source
[6] = molecular target: PD-1 on IcAR-PD-1 cells (Immune Checkpoint Artificial Reporter overexpressing PD-1) (human) (UniProt Q15116); remark: listed apart in the source
[7] = surface PD-L1 flow cytometry, MDA-MB231; conditions: glycan lost; control: WT PD-L1, MDA-MB231
[8] = soluble PD-L1 ELISA of supernatants, MDA-MB231 and MCF7; conditions: glycan lost; control: WT PD-L1
[9] = total-cellular/membrane PD-L1 ratio, flow cytometry, fixed MDA-MB231; conditions: glycan lost; control: WT PD-L1, MDA-MB231
[10] = EV-bound PD-L1 ELISA after ultracentrifugation; conditions: glycan lost; control: WT PD-L1
[11] = PD-L1 ELISA of cell lysates, MDA-MB231 and MCF7; conditions: glycan lost; control: WT PD-L1
[12] = IcAR-PD-1 mIL-2 with ICBs, A375 and A549 cells; conditions: glycan lost; control: WT PD-L1
[13] = surface PD-L1 flow cytometry, MCF7; conditions: glycan lost; control: WT PD-L1, MCF7
[14] = total-cellular/membrane PD-L1 ratio, flow cytometry, fixed MCF7; conditions: glycan lost; control: WT PD-L1, MCF7
[15] = molecular target: PD-1 on IcAR-PD-1 cells (Immune Checkpoint Artificial Reporter overexpressing PD-1) (human) (UniProt Q15116); remark: listed apart in the source

percent blocking of the mIL-2 signal of IcAR-PD-1 cells by the anti-PD-1 antibody Nivolumab (1.5-40 µg/mL), MCF7 cells [2]: > 50% | percent of CD107a+ cells among CD8+ PD-1+ TCM cells (degranulation) after 4 h co-culture of anti-hCD3-activated PBMCs with MCF7 cells [3]: 3.1% | percent of CD107a+ cells among CD8+ PD-1+ TCM cells (degranulation) after 4 h co-culture of anti-hCD3-activated PBMCs with MDA-MB231 cells [3]: 3.7% | percent blocking of the mIL-2 signal of IcAR-PD-1 cells by Cemiplimab (anti-PD-1, 10 µg/mL), fixed MCF7 cells [4]: 53% | percent blocking of the mIL-2 signal of IcAR-PD-1 cells by Cemiplimab (anti-PD-1, 10 µg/mL), fixed MDA-MB231 cells [4]: 19.6% | percent blocking of the mIL-2 signal of IcAR-PD-1 cells by Nivolumab (anti-PD-1, 10 µg/mL), fixed MCF7 cells [4]: 98.6% | percent blocking of the mIL-2 signal of IcAR-PD-1 cells by Nivolumab (anti-PD-1, 10 µg/mL), fixed MDA-MB231 cells [4]: 83.2% | percent blocking of the mIL-2 signal of IcAR-PD-1 cells by Pembrolizumab (anti-PD-1, 10 µg/mL), fixed MCF7 cells [4]: 100% | percent blocking of the mIL-2 signal of IcAR-PD-1 cells by Pembrolizumab (anti-PD-1, 10 µg/mL), fixed MDA-MB231 cells [4]: 91.6%
Substance: PD-L1 N35A glycosylation mutant (from UniProt Q9NZQ7 19-290) (ligand)
percent lysis of MCF7 target cells by PBMCs (killing assay) [1]: 3.8% | percent lysis of MDA-MB231 target cells by PBMCs (killing assay) [1]: 12.2%

percent blocking of the mIL-2 signal of IcAR-PD-1 cells by anti-PD-1 antibodies Pembrolizumab, Nivolumab, Cemiplimab, all concentrations, MDA-MB231 and MCF7 cells [5]: 100% | percent of CD107a+ cells among CD8+ PD-1+ TCM cells (degranulation) after 4 h co-culture of anti-hCD3-activated PBMCs with MCF7 cells [3]: 6.1% | percent of CD107a+ cells among CD8+ PD-1+ TCM cells (degranulation) after 4 h co-culture of anti-hCD3-activated PBMCs with MDA-MB231 cells [3]: 10.3% | mIL-2 response of IcAR-PD-1 cells incubated 24 h with formalin-fixed MCF7 cells, no antibody; fold reduction against PD-L1WT (fold reduction) [6]: 22 | mIL-2 response of IcAR-PD-1 cells incubated 24 h with formalin-fixed MDA-MB231 cells, no antibody; fold reduction against PD-L1WT (fold reduction) [6]: 10
Substance: PD-L1 Nx4 mutant (all four N-glycosylation sites replaced by alanine) (from UniProt Q9NZQ7 19-290) (ligand)
percent lysis of MCF7 target cells by PBMCs (killing assay) [1]: 7% | percent lysis of MDA-MB231 target cells by PBMCs (killing assay) [1]: 39.1%

Substance: PD-L1: N35A
expression_or_secretion, fold_change [7]: no change | expression_or_secretion [8]: increases, decreased by approximately 35% in MDA-MB231 PD-L1N35A cells and about 45% in MCF7 PD-L1N35A cells | localisation_or_trafficking, fold_change [9]: no change, a slight increase in total-cellular PD-L1 levels was observed in PD-L1N35A mutant MDA-MB231 cells | expression_or_secretion [10]: increases | expression_or_secretion [11]: no change | other: antibody blockade of PD-L1/PD-1 interaction [12]: decreases | expression_or_secretion, fold_change [13]: no change | localisation_or_trafficking [14]: no change

Substance: PD-L1: N192A
expression_or_secretion, fold_change [7]: no change | expression_or_secretion, fold_change [13]: no change

Substance: PD-L1: N200A
expression_or_secretion, fold_change [7]: no change | expression_or_secretion, fold_change [13]: no change

Substance: PD-L1: N219A
expression_or_secretion, fold_change [7]: no change | expression_or_secretion, fold_change [13]: no change

Substance: WT PD-L1 (programmed death-ligand 1) (from UniProt Q9NZQ7 19-290)
concentration of the anti-PD-1 antibody Pembrolizumab that completely blocked the mIL-2 signal of IcAR-PD-1 cells, MDA-MB231 and MCF7 cells [15]: 20 µg/mL

Source: PMC12065222
